Where no end group is shown, it is not given here. [ ]: non-standard residue; d: D form.

First the molecules themselves.
B1: FIKK13_6 (peptide)
peptide: YIVSVVCWSD
modifications: D-tyrosine at position 1; cyclised via a thioether bond between the N-terminus and the cysteine side chain; C-terminal amide
B2: FIKK13_2 (peptide)
peptide: YSFPVYRIWYRDCG
modifications: D-tyrosine at position 1; cyclised via a thioether bond between the N-terminus and the cysteine side chain; C-terminal amide
B3: FIKK13_1 (peptide)
peptide: YRLVFGCG
modifications: D-tyrosine at position 1; cyclised via a thioether bond between the N-terminus and the cysteine side chain; C-terminal amide
B4: FIKK13_2_linear (peptide)
peptide: [dY]SFPVYRIWYRDCG-NH2
modifications: N-terminus assumed
SMILES: CC[C@H](C)[C@H](NC(=O)[C@H](CCCNC(=N)N)NC(=O)[C@H](Cc1ccc(O)cc1)NC(=O)[C@@H](NC(=O)[C@@H]1CCCN1C(=O)[C@H](Cc1ccccc1)NC(=O)[C@H](CO)NC(=O)[C@H](N)Cc1ccc(O)cc1)C(C)C)C(=O)N[C@@H](Cc1c[nH]c2ccccc12)C(=O)N[C@@H](Cc1ccc(O)cc1)C(=O)N[C@@H](CCCNC(=N)N)C(=O)N[C@@H](CC(=O)O)C(=O)N[C@@H](CS)C(=O)NCC(N)=O
B5: FIKK13_4_Y10A (peptide)
peptide: YPLRFLSVKAHCG
modifications: D-tyrosine at position 1; cyclised via a thioether bond between the N-terminus and the cysteine side chain; C-terminal amide
B6: FIKK13_5 (peptide)
peptide: YRIFRIWWERCG
modifications: D-tyrosine at position 1; cyclised via a thioether bond between the N-terminus and the cysteine side chain; C-terminal amide
B7: FIKK13_4_linear (peptide)
peptide: [dY]PLRFLSVKYHCG-NH2
modifications: N-terminus assumed
SMILES: CC(C)C[C@H](NC(=O)[C@H](Cc1ccccc1)NC(=O)[C@H](CCCNC(=N)N)NC(=O)[C@H](CC(C)C)NC(=O)[C@@H]1CCCN1C(=O)[C@H](N)Cc1ccc(O)cc1)C(=O)N[C@@H](CO)C(=O)N[C@H](C(=O)N[C@@H](CCCCN)C(=O)N[C@@H](Cc1ccc(O)cc1)C(=O)N[C@@H](Cc1c[nH]cn1)C(=O)N[C@@H](CS)C(=O)NCC(N)=O)C(C)C
B8: FIKK13_3 (peptide)
peptide: YPFITSPRYCFML
modifications: D-tyrosine at position 1; cyclised via a thioether bond between the N-terminus and the cysteine side chain; C-terminal amide

The experiment addresses Bio-His-FIKK13 (Plasmodium falciparum 3D7). Description: SPR; single-cycle kinetics, Biacore S200, Biotin CAPture kit; Bio-His-FIKK13 immobilised (about 1,400 RU), peptides as analytes; 50 mM Tris pH 7.5, 250 mM NaCl, 2 mM DTT, 10 mM MgCl2, 1.5 µM ADP, 0.02% Tween, 0.1% DMSO; 25 °C; 100 s contact time. (Surface plasmon resonance follows binding to a sensor surface in real time, without labels.)
By Kd is commonly meant the free concentration of one partner at which half of the binding sites on the other are occupied at equilibrium, for simple one-to-one binding. A low value points to a tighter complex. As to B1, the Kd is more than 10 µM.
A word on the koff: it is the first-order rate constant of dissociation. The kon is the rate constant with which the complex forms. B2: the koff turned out to be 0.2 s⁻¹ and the association rate constant (kon) came to 1.4e+06 M⁻¹ s⁻¹.
In the case of B3, the Kd was more than 10 µM.
In turn, B4 had a dissociation constant Kd of more than 10 µM.
Same read-out and setting: the value for B5 was more than 10 µM.
With B6, the koff amounted to 0.07 s⁻¹ and the kon was 1.9e+06 M⁻¹ s⁻¹.
With B7, the Kd was more than 10 µM.
For B8, the koff stood at 0.029 s⁻¹ and the kon turned out to be 3.5e+06 M⁻¹ s⁻¹.
